Measured values as given in patent US6818612B2, “Use of parvovirus capsid particles in the inhibition of cell proliferation and migration” (priority 1998, dated 2004).

B1: VP2 capsids: B19 parvovirus capsids having only VP2 (protein)
chain: MTSVNSAEASTGAGGGGSNSVKSMWSEGATFSANSVTCTFSRQFLIPYDPEHHYKVFSPAASSCHNASGKEAKVCTISPIMGYSTPWRYLDFNALNLFFSPLEFQHLIENYGSIAPDALTVTISEIAVKDVTDKTGGGVQVTDSTTGRLCMLVDHEYKYPYVLGQGQDTLAPELPIWVYFPPQYAYLTVGDVNTQGISGDSKKLASEESAFYVLEHSSFQLLGTGGTASMSYKFPPVPPENLEGCSQHFYEMYNPLYGSRLGVPDTLGGDPKFRSLTHEDHAIQPQNFMPGPLVNSVSTKEGDSSNTGAGKALTGLSTGTSQNTRISLRPGPVSQPYHHWDTDKYVTGINAISHGQTTYGNAEDKEYQQGVGRFPNEKEQLKQLQGLNMHTYFPNKGTQQYTDQIERPLMVGSVWNRRALHYESQLWSKIPNLDDSFKTQFAALGGWGLHQPPPQIFLKILPQSGPIGGIKSMGITTLVQYAVGIMTVTMTFKLGPRKATGRWNPQPGVYPPHAAGHLPYVLYDPTATDAKQHHRHGYEKPEELWTAKSRVHPL

Legend:
[1] = tested on: human fetal liver cells; test: Colony formation assay (Stem cell CFU kit, 11 day) of fetal liver cells; type: cell-based; conditions: FIG. 9
[2] = tested on: human umbilical vein endothelial cells (HUVEC); test: Endothelial cell proliferation assay (crystal violet, A540); type: cell-based
Procedure: To determine whether B19 parvovirus capsids can inhibit endothelial cell proliferation, assays were performed in which primary human umbilical vein endothelial cells, plated at a density of 1.5×10^4 cells per well in a 24 well plate, were incubated with B19 parvovirus capsids in the presence of 0.5% fetal calf serum+10.0 ng/ml basic fibroblast growth factor. The various B19 parvovirus capsid preparations (i.e., VP1/2 or capsids made with only VP1 or VP2) were added to each well on the following day and the cells with capsids were incubated for additional 72 hours. Cell proliferation was then determined by using a crystal violet dye assay. Accordingly, capsid treated cells were washed in PBS, fixed in 3.7% formaldehyde, and incubated with crystal violet. The dye was then removed by extensive washes with distilled water. The cell-associated crystal violet was solubilized with 10% acetic acid and quantified at absorbance 540 nm in an ELISA plate reader.
Thus, from left to right, the bars represent the absorbance at 540 nm with 0 μg/ml, 0.01 μg/ml, 0.1 μg/ml, 1.0 μg/ml, and 10.0 μg/ml. […] The standard deviation was within 10%.

[3] = tested on: human fetal liver cells; test: Colony formation assay (Stem cell CFU kit, 11 day) of fetal liver cells; type: cell-based; conditions: fetal liver cells
Excerpt: In a first set of experiments, it was discovered that B19 parvovirus capsids inhibit hematopoiesis and that these molecules could be used to reduce the overproduction of red blood cells, white blood cells, and blood platelets, as is experienced by patients suffering from hematological proliferative diseases, such as Polycytemia Vera. (See FIG. 1A). In a first set of experiments, fresh human fetal liver cells, umbilical cord blood cells, and bone marrow cells were contacted with recombinant B19 parvovirus capsids in a colony formation assay. The general features of a colony formation assay are depicted in FIG. 1B. The ability of the B19 parvovirus capsids to inhibit hematopoiesis was verified by the reduction of colony formation in the presence of the capsids, as compared to untreated control populations of cells. A more detailed description of these experiments is provided below.
To obtain fetal liver tissue, human fetuses 6-12 weeks of gestational age were obtained from legal abortions; the patients had volunteered to donate fetal tissue. Gestational age was estimated according to specific anatomical markers and is given as menstruational age. Abortions were performed with vacuum aspirations. Fetal liver was dissected under sterile conditions, placed in a sterile tube containing RPMI1640 and disintegrated by passage through a vinyl mesh to form a single cell suspension. Nucleated cells were then washed three times, counted and diluted in culture medium.
A commercial kit—the “Stem cell CFU kit” (GIBCO BRL, Life Technology Inc., NY, USA)—was used to perform the colony formation assays. The kit provides a semi-solid support that mimics the extracellular matrix produced by stromal cells. Other components included in the kit are: Iscove's modified Dulbecco's medium, modified fetal bovine serum, methylcellulose, 2-mercaptoethanol, conditioned medium and erythropoietin. The colonies that were formed in the assay were identified as BFU-E (burst forming unit-erythroid cells) with densely packed hemoglobonized cells, CFU-GM (colony forming units-granulocytes, macrophages) with arrangements of non-hemoglobinized cells, and CFU-GEMM (colony forming units-granulocytes, erythroid cells, macrophages, megakaryocytes) with hemoglobinized cells and small and large peripheral cells.
Recombinant B19 parvovirus empty capsid particles (Kajigaya et al., Proc Natl Acad Sci USA, 88:4646 (1991)) were prepared in a recombinant baculovirus-insect cell (Spodofera frugiperda) expression system. (Kajigaya et al., Proc Natl Acad Sci USA, 88:4646 (1991)). The isolated or purified capsids were diluted in buffer (20 mM Tris, 0.5M NaCl, pH 8.5) and 30 μL of each dilution was added to approximately 25×10^3 cells (50×10^3 for postnatal cells) in 100 μL of culture medium and incubated for 1 hour at 4° C. The mixtures were then transferred to incubation dishes and culture medium was added to a final volume of 0.5 ml per well. The cells were then incubated for 11 days in a humidified atmosphere at 5% CO2, and were scored for BFU-E, CFU-GM and CFU-GEMM derived colony formation.

[4] = tested on: HUVEC cells; test: Endothelial cell migration assay (modified Boyden chamber); type: cell-based, human
Procedure: The effect of B19 parvovirus capsid preparations on cell migration was also determined. The migration assays were performed using a modified Boyden chamber assay (Neuroprobe, Inc.). Basic fibroblast growth factor (40 ng/ml) was added to stimulate migration of the HUVEC cells through a collagen 1 coated 8 μm pore size millipore filter. Cells were incubated for 60 min with the various B19 parvovirus capsid preparations (i.e., VP1/2 or capsids made with only VP1 or VP2) prior to conducting the migration assay. To perform the migration assay, the Boyden chamber was incubated for 4.5 h at 37° C. in a 10% CO2 atmosphere. The filters were subsequently removed and were fixed in 3.7% formaldehyde. Cell migration was visualized by staining the filters overnight in Gill's Hematoxylin. The number of migrating cells were scored by counting stained cells on the migrating side of the filter per high power magnification field. (See FIG. 15).

Molecule | inhibition of hematopoiesis and cell growth (colony formation) by deletion series peptides [1] | inhibition of endothelial cell proliferation ([2]; 10.0 μg/ml, FIG. 14) | lowest concentration that efficiently inhibits endothelial cell proliferation ([2]; 72 hours, 10.0 ng/ml basic fibroblast growth factor, FIG. 14, 'as low as') | inhibition of colony formation ([3]; 1 μg/ml VP2 capsid, FIG. 4) | colony formation, % of the control ([3]; 30 μg/mL, FIG. 5) | inhibition of hematopoietic cell growth ([3]; 30 μg/ml, FIG. 3) | lowest concentration at which inhibition of colony formation of hematopoietic cells was seen ([3]; 11 day colony formation assay, 'as little as' / 'as low as') | inhibition of colony formation of hematopoietic stem cells compared with VP1/2 capsids ([3]; FIG. 4) | inhibition of endothelial cell migration compared with other capsid preparations ([4]; FIG. 15) | lowest concentration that effectively inhibited endothelial cell migration ([4]; basic fibroblast growth factor 40 ng/ml, FIG. 15, 'as low as')
NKGTQQYTDQ (OTHER INFORMATION: Peptide fragments derived from parvovirus capsid particles) [Peptide IV] | significantly inhibit hematopoiesis and cell growth | – | – | – | – | – | – | – | – | –
QQY [Peptide VIII] | significantly inhibit hematopoiesis and cell growth | – | – | – | – | – | – | – | – | –
B1 | – | significant inhibition | 1.0 µg/mL | Approximately 50% | less than 30 % of the control | significant inhibition | 3 µg/mL | as effectively as VP1/2 capsids | significantly more potent than that observed with either native capsids (VP1/2) or capsids having only VP1 | 1 µg/mL
